Key:
[1] = molecular target: recombinant UBE3A protein (Homo sapiens (Human)) (UniProt Q05086); test: 2-step Simoa; capture GTX; UBE3A 0.122 ng/ml
[2] = molecular target: recombinant UBE3A protein (Homo sapiens (Human)) (UniProt Q05086); test: 3-step Simoa; capture GTX; UBE3A 31.3 ng/ml
[3] = molecular target: recombinant UBE3A protein (Homo sapiens (Human)) (UniProt Q05086); test: Simoa; capture GTX + helper beads; 3E5 0.4 ug/ml; UBE3A 20.0 ng/ml
[4] = molecular target: recombinant UBE3A protein (Homo sapiens (Human)) (UniProt Q05086); test: Simoa; capture GTX + helper beads; 3E5 0.1 ug/ml; UBE3A 0.0320 ng/ml
[5] = molecular target: recombinant UBE3A protein (Homo sapiens (Human)) (UniProt Q05086); test: Simoa; capture GTX, no helper beads; 3E5 0.4 ug/ml; UBE3A 0.00128 ng/ml
[6] = molecular target: recombinant UBE3A protein (Homo sapiens (Human)) (UniProt Q05086); test: Simoa; capture GTX, no helper beads; 3E5 0.2 ug/ml; UBE3A 0.160 ng/ml
[7] = molecular target: recombinant UBE3A protein (Homo sapiens (Human)) (UniProt Q05086); test: Simoa; capture GTX, no helper beads; 3E5 0.1 ug/ml; UBE3A 0.160 ng/ml
[8] = molecular target: recombinant UBE3A protein (Homo sapiens (Human)) (UniProt Q05086); test: Simoa; capture GTX + helper beads; 3E5 0.4 ug/ml; UBE3A 0.00128 ng/ml
[9] = molecular target: recombinant UBE3A protein (Homo sapiens (Human)) (UniProt Q05086); test: Simoa; capture GTX; 3E5 0.1 ug/ml; UBE3A 0.0320 ng/ml
[10] = molecular target: recombinant UBE3A protein (Homo sapiens (Human)) (UniProt Q05086); test: 3-step Simoa, 120 min bead step; capture GTX; UBE3A 20.0 ng/ml
[11] = molecular target: recombinant UBE3A protein (Homo sapiens (Human)) (UniProt Q05086); test: Simoa; capture GTX; 3E5 0.1 ug/ml; UBE3A 0.00128 ng/ml
[12] = molecular target: recombinant UBE3A protein (Homo sapiens (Human)) (UniProt Q05086); test: Simoa; capture GTX; 3E5 0.1 ug/ml; UBE3A 0.800 ng/ml
[13] = molecular target: recombinant UBE3A protein (Homo sapiens (Human)) (UniProt Q05086); test: Simoa; capture GTX; 3E5 0.2 ug/ml; UBE3A 0.0320 ng/ml
[14] = molecular target: recombinant UBE3A protein (Homo sapiens (Human)) (UniProt Q05086); test: Simoa; capture GTX; SBG 75 pm; UBE3A 0.160 ng/ml
[15] = molecular target: recombinant UBE3A protein (Homo sapiens (Human)) (UniProt Q05086); test: Simoa; capture GTX + helper beads; 3E5 0.2 ug/ml; UBE3A 0.00640 ng/ml
[16] = molecular target: recombinant UBE3A protein (Homo sapiens (Human)) (UniProt Q05086); test: Simoa; capture GTX + helper beads; 3E5 0.1 ug/ml; UBE3A 0.800 ng/ml
[17] = molecular target: recombinant UBE3A protein (Homo sapiens (Human)) (UniProt Q05086); test: Simoa; capture GTX; 3E5 0.1 ug/ml; UBE3A 20.0 ng/ml
[18] = molecular target: recombinant UBE3A protein (Homo sapiens (Human)) (UniProt Q05086); test: 3-step Simoa, 120 min bead step; capture GTX; UBE3A 0.0320 ng/ml
[19] = molecular target: recombinant UBE3A protein (Homo sapiens (Human)) (UniProt Q05086); test: Simoa head-to-head, Table 11; capture GTX; UBE3A 0.80 ng/ml
[20] = molecular target: recombinant UBE3A protein (Homo sapiens (Human)) (UniProt Q05086); test: Simoa; capture GTX + helper beads; 3E5 0.1 ug/ml; UBE3A 0.00128 ng/ml

UniProt Q05086, sequence (Q05086 whole entry): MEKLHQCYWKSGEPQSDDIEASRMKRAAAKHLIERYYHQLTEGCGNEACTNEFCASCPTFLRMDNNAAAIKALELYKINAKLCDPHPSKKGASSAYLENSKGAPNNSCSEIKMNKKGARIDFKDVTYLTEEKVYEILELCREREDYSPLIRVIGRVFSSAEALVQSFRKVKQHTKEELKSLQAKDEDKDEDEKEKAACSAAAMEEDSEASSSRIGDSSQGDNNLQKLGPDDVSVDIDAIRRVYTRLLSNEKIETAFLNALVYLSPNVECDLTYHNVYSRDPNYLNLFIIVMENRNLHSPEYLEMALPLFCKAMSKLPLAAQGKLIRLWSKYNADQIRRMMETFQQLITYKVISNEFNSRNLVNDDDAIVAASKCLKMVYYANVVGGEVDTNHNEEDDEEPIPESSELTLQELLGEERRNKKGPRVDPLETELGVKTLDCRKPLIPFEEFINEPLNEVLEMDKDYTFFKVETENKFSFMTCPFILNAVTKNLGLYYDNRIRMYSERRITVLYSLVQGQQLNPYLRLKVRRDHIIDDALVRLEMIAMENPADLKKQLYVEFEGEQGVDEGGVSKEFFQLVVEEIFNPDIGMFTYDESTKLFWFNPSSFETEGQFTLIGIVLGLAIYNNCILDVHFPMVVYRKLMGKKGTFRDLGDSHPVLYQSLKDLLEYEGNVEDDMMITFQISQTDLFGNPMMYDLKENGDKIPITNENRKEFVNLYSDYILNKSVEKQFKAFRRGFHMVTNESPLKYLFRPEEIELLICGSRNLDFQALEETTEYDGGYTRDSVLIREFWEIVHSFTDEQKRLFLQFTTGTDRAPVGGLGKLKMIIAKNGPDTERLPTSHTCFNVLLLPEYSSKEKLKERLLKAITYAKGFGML

Substance: NB500-240 (Novus) (antibody)
- AEB1 [1]: 0.004
- AEB2 [1]: 0.0037
- Ave AEB [1]: 0.0039
- Signal to Background [1]: 1.18
- AEB1 [2]: 0.0425
- AEB2 [2]: 0.046
- Ave AEB [2]: 0.0443
- Signal to Background [2]: 20.3

Substance: anti-UBE3A antibody 3E5 (SAB1404508-100 ug, Millipore-Sigma)
- AEB1 [3]: 4.41
- AEB2 [3]: 6.45
- Average AEB [3]: 5.43
- Signal to Background [3]: 278
- AEB1 [4]: 0.0159
- AEB2 [4]: 0.0108
- Average AEB [4]: 0.0134
- Signal to Background [4]: 2.33
- AEB1 [5]: 0.0195
- AEB2 [5]: 0.0213
- Average AEB [5]: 0.0204
- Signal to Background [5]: 1.04
- AEB1 [6]: 0.0675
- AEB2 [6]: 0.0686
- Average AEB [6]: 0.068
- Signal to Background [6]: 7.03
- AEB1 [7]: 0.0402
- AEB2 [7]: 0.0395
- Average AEB [7]: 0.0399
- Signal to Background [7]: 6.95
- AEB1 [8]: 0.0222
- AEB2 [8]: 0.0178
- Average AEB [8]: 0.02
- Signal to Background [8]: 1.02
- AEB1 [9]: 0.0351
- AEB2 [9]: 0.04
- AEB3 [9]: 0.0401
- Average AEB [9]: 0.0384
- Signal to Background [9]: 1.99
- AEB1 [10]: 2.8
- AEB2 [10]: 2.88
- Ave AEB [10]: 2.84
- Signal to Background [10]: 1660
- AEB1 [11]: 0.0242
- AEB2 [11]: 0.0239
- AEB3 [11]: 0.0247
- Average AEB [11]: 0.0243
- Signal to Background [11]: 1.26
- AEB1 [12]: 0.257
- AEB2 [12]: 0.27
- AEB3 [12]: 0.245
- Average AEB [12]: 0.257
- Signal to Background [12]: 13.3
- AEB1 [13]: 0.0619
- AEB2 [13]: 0.0621
- AEB3 [13]: 0.0587
- Average AEB [13]: 0.0609
- Signal to Background [13]: 1.55
- AEB1 [14]: 0.0299
- AEB2 [14]: 0.0294
- AEB3 [14]: 0.03
- Average AEB [14]: 0.0298
- Signal to Background [14]: 6.82
- AEB1 [15]: 0.0133
- AEB2 [15]: 0.0127
- Average AEB [15]: 0.013
- Signal to Background [15]: 1.34
- AEB1 [16]: 0.167
- AEB2 [16]: 0.166
- Average AEB [16]: 0.166
- Signal to Background [16]: 29
- AEB1 [17]: 5.11
- AEB2 [17]: 5.62
- AEB3 [17]: 5.2
- Average AEB [17]: 5.31
- Signal to Background [17]: 276
- AEB1 [18]: 0.0115
- AEB2 [18]: 0.0095
- Ave AEB [18]: 0.0105
- Signal to Background [18]: 6.15
- AEB1 [19]: 0.0916
- AEB2 [19]: 0.0961
- Ave AEB [19]: 0.0939
- Signal to Background [19]: 11.5
- AEB1 [20]: 0.0065
- AEB2 [20]: 0.0083
- Average AEB [20]: 0.0074
- Signal to Background [20]: 1.29

From patent publication US12467929
